Molecular target: biotin-YY1 spacer peptide (human) (UniProt P25490)
Assay: SPR

Chain of SFMBT2 4MBT domain, human (domain or fragment) (Q5VUG0 whole entry, the tested form may be a part): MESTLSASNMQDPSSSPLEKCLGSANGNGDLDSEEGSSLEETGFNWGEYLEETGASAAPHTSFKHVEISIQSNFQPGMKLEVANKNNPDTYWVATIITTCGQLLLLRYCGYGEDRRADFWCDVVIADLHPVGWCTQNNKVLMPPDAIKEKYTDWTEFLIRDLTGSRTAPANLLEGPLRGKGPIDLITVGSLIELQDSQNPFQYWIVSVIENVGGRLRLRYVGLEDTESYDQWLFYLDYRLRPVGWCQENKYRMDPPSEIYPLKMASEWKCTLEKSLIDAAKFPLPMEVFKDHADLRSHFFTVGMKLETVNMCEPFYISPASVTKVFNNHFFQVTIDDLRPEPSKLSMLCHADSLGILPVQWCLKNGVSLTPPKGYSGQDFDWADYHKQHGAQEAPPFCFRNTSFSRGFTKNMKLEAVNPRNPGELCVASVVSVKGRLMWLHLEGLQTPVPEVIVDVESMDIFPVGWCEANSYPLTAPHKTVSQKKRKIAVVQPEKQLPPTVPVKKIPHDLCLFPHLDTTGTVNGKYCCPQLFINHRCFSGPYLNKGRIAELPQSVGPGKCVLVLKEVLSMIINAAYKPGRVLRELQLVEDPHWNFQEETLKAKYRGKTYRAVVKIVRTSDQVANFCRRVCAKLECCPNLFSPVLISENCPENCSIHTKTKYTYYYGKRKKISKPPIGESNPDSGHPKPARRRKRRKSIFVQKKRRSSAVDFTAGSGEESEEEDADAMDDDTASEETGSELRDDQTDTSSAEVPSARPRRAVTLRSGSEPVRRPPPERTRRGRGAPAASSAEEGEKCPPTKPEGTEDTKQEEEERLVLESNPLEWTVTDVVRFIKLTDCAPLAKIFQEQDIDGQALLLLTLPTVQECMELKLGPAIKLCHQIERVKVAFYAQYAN
Chain of biotin-YY1 spacer peptide (human) (P25490 199-228): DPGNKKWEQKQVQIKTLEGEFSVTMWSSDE

**Q.** With “SFMBT2 4MBT domain, human (domain or fragment)” as the substance, how does the fold lower affinity than L3MBTL2 and MBTD1 read?
**A.** The fold lower affinity than L3MBTL2 and MBTD1 was 2 fold.

**Q.** What about the fold weaker affinity than the Drosophila complex of the same substance?
**A.** The fold weaker affinity than the Drosophila complex was 50 fold.

— PMC3828522
